Columns and labels:
[1] = system: C. albicans; assay: Preservative efficacy in body lotion against C. albicans; assay type: cell-based; conditions: 0.005% in combinations, phenoxyethanol 0.7% alone, 0.3% combined, caprylyl glycol 0.7% alone, 0.35% combined, sodium benzoate 0.5% + EDTA 0.5%, 2% 2:1 propanediol:hexanediol, 0.5% CHA solution
Method: (§1) A vessel was filled with deionized water, placed under an overhead stirrer set to moderate mixing, and heated to 75-80° C. Glycerin was added to 2% and mixed until dissolved, followed by xanthan gum to 0.2%. At 75-80° C., cetearyl glucoside and cetearyl alcohol were added to 4% and 3%. Once both had melted fully, milk thistle seed oil was added and the batch was homogenized with a Silverson homogenizer with the standard emulsion screen until the batch had turned milky white. The batch was removed from heat and returned to propellor mixing with decreased speed to allow the emulsion to set up. At 40° C., pH was adjusted to pH 5.5-6.0 using citric acid or sodium hydroxide and split into several portions and allowed to finish cooling. Once cooled to room temperature, one portion of the body lotion was left unpreserved and the remaining portions were preserved with one or more substances selected from aseptilase, phenoxyethanol, caprylyl glycol, sodium benzoate, and EDTA. All samples were inoculated with E. coli (10^6 CFU/mL) and C. albicans (10^5 CFU/mL) and plated after 2 and 7 days.

[2] = system: E. coli; assay: Preservative efficacy in body lotion against E. coli; assay type: cell-based; conditions: 0.005% in combinations, phenoxyethanol 0.7% alone, 0.3% combined, caprylyl glycol 0.7% alone, 0.35% combined, sodium benzoate 0.5% + EDTA 0.5%, 2% 2:1 propanediol:hexanediol, 0.5% CHA solution
Method: as §1

[3] = system: C. albicans (ATCC 10231); assay: MIC determination against C. albicans; assay type: cell-based
Method: E. coli (ATCC 8739) and C. albicans (ATCC 10231) were acquired from the American Type Culture Collection (ATCC) (Manassas, VA) and maintained as −80° C. frozen glycerol stocks.
For MIC determination of yeast cultures, C. albicans (ATCC 10231) was grown overnight (24 hours) in Sabouraud Dextrose broth at 30° C. The following day, the cell density of the saturated cultures was calculated using OD600 and cultures were diluted to 104 to 10^6 CFU/mL in sterile Sabouraud Dextrose broth media to generate the inoculum, and 100 μL of the inoculum was combined with 100 μL of serially diluted Tgase variant at a range of 0.0001-0.05 weight percent. The cultures were grown overnight at 30° C. and growth curves were measured by OD600 on a BioTek® Synergy Plate Reader. All test conditions were performed in triplicate. MIC was determined to be […] (0.005% w/v) against C. albicans for the enzyme described in SEQ ID NO: 4 using OD600.

[4] = system: N,N-dimethylcasein; assay: Rate of product formation over 60 minutes (protein functionalization assay); assay type: biochemical; set-up: key: −: a reduction in activity; +: an improvement between 1.2 and 2-fold; ++: an improvement between 2 and 5-fold; +++: an improvement greater than 5-fold; conditions: improvement relative to wild-type Tgase (SEQ ID NO: 2); initial rate over 60 min
Method: Enzymatic “productivity” is a measure of product formation or substrate disappearance over time, at a prescribed temperature under specified reaction conditions. It is the measure both the durability and reaction yield of the enzyme variant. In this instance, productivity is defined as total product formed over 24-hours at a constant substrate concentration when the enzyme is the rate limiting factor. The time is defined as 24 hours, which represents approaching or surpassing burnout, denaturation, or self-reaction of the enzyme variant. In other words, variants with higher productivity deliver a higher product yield in 24-hours than variants with lower productivity produce in the same period of time. “Rate” refers to the initial rate for an enzymatic reaction, at a prescribed temperature under specified reaction conditions. The enzyme produces product at an initial rate that is approximately linear for a short period after the start of the reaction. When concentrations of enzyme and substrate are the same across the sample set, initial rates between enzyme variants can be compared. In this instance, the linear range for production of product occurs in one hour. Enzyme variants with faster initial rates deliver a higher product yield in one hour than variants with slower initial rates produce at the same time-period. In some cases, improvements to initial rates also deliver a more productive variant. In some cases, improvements to initial rates result in faster decay of the enzyme variant reducing overall enzymatic productivity. Productivity and rate may be assessed as described in Example 2.
Table 6 depicts variants of Streptomyces mobaraensis Tgase and improvement to productivity and/or rate relative to wild-type Tgase (SEQ ID NO. 2) as determined in Example 3. Numbering of amino acid positions is in reference to the mature S. mobaraensis Tgase sequence depicted in SEQ ID NO. 2. A “−” indicates a reduction in activity. A “+” indicates an improvement between 1.2 and 2-fold. A “++” indicates an improvement between 2 and 5-fold. A “+++” indicates an improvement greater than 5-fold.
Rate was assessed by measuring the rate of product formation over 60 minutes of incubation using a kinetic method to take scans every 60 seconds to determine product formation, using reaction conditions as described in Example 4B. The enzyme produces product at an initial rate that is approximately linear for the first one hour of the reaction. The concentrations of enzyme and substrate are the same across the sample set for each enzyme variant. Enzyme variants with faster initial rates deliver a higher product yield in one hour than variants with slower initial rates produce at the same time-period.
Protein functionalization by Tgase variants was determined by the fluorogenic labeling of casein using monodansylcadaverine (e.g., a commercially available kit such as the Transglutaminase Fluorogenic Activity Assay Kit, T036, Zedira, Germany). Tgase activity was monitored by measuring fluorescence (excitation wavelength 332 nm; emission wavelength 500 nm) using a BioTek Synergy H1 microplate reader. Transglutaminase-catalyzed covalent coupling (crosslinking) of monodansylcadaverine with N,N-dimethylcasein produces a product that causes a shift in intensity and wavelength of fluorescence of the dansyl group now linked to the casein. The relative transglutaminase activity is shown by increase of fluorescence intensity over time. Enzyme variant loading was optimized based on expression levels, ensuring enzyme was the rate limiting factor. Briefly, cell-free reactions (set up as described in Example 2A) were first diluted 10-fold using phosphate buffer, pH 7.4, and a 5 microliter aliquot was analyzed.

B1: A3: Tgase variant S2P Q50S Q74A K91H Q124L K151R K152R N282M G283A relative to SEQ ID NO: 2 (protein, UniProt P81453 77-407, looked up, variant S2P Q50S Q74A K91H Q124L K151R K152R N282M G283A)
Protein-glutamine …: DPDDRVTPPAEPLDRMPDPYRPSYGRAETVVNNYIRKWQQVYSHRDGRKSQMTEEQREWLSYGCVGVTWVNSGAYPTNRLAFASFDEDRFHNELKNGRPRSGETRAEFEGRVAKESFDEEKGFLRAREVASVMNRALENAHDESAYLDNLRRELANGNDALRNEDARSPFYSALRNTPSFKERNGGNHDPSRMKAVIYSKHFWSGQDRSSSADKRKYGDPDAFRPAPGTGLVDMSRDRNIPRSPTSPGEGFVNFDYGWFGAQTEADADKTVWTHGNHYHAPMASLGAMHVYESKFRNWSEGYSDFDRGAYVITFIPKSWNTAPDKVKQGWP
**Q.** Which results are given for B1?
**A.** Preservative efficacy against C. albicans, log reduction ([1]; day 2, aseptilase 0.01% alone): −1.08 log reduction in CFU/mL; Preservative efficacy against C. albicans, log reduction ([1]; day 7, aseptilase 0.01% alone): −1.19 log reduction in CFU/mL; Preservative efficacy against E. coli, log reduction ([2]; day 2, aseptilase 0.01% alone): 1.71 log reduction in CFU/mL; Preservative efficacy against E. coli, log reduction ([2]; day 7, aseptilase 0.01% alone): 3.45 log reduction in CFU/mL; MIC ([3]; OD600): 100 ppm; MIC ([3]; OD600, printed in brackets after the ppm value): 0.005 % w/v; Rate [4]: −

Reference: patent US20260327578A1, “TRANSGLUTAMINASES AND USES THEREOF” (CURIE CO. INC., priority 2023, published 2026)
